B1: BmrA D572A (natural protein, Bacillus subtilis strain 168, UniProt O06967 1-589, looked up)
chain: MPTKKQKSKSKLKPFFALVRRTNPSYGKLAFALALSVVTTLVSLLIPLLTKQLVDGFSMSNLSGTQIGLIALVFFVQAGLSAYATYALNYNGQKIISGLRELLWKKLIKLPVSYFDTNASGETVSRVTNDTMVVKELITTHISGFITGIISVIGSLTILFIMNWKLTLLVLVVVPLAALILVPIGRKMFSISRETQDETARFTGLLNQILPEIRLVKASNAEDVEYGRGKMGISSLFKLGVREAKVQSLVGPLISLVLMAALVAVIGYGGMQVSSGELTAGALVAFILYLFQIIMPMGQITTFFTQLQKSIGATERMIEILAEEEEDTVTGKQIENAHLPIQLDRVSFGYKPDQLILKEVSAVIEAGKVTAIVGPSGGGKTTLFKLLERFYSPTAGTIRLGDEPVDTYSLESWREHIGYVSQESPLMSGTIRENICYGLERDVTDAEIEKAAEMAYALNFIKELPNQFDTEVGERGIMLSGGQRQRIAIARALLRNPSILMLDEATSSLDSQSEKSVQQALEVLMEGRTTIVIAHRLSTVVDADQLLFVEKGEITGRGTHHELMASHGLYRAFAEQQLKMNADLENKAG
notes: BmrA of Bacillus subtilis strain 168, full length, D572 replaced by Ala; source: E. coli, purified in presence of detergent (DDM)
B2: BmrA F573A (natural protein, Bacillus subtilis strain 168, UniProt O06967 1-589, looked up)
chain: MPTKKQKSKSKLKPFFALVRRTNPSYGKLAFALALSVVTTLVSLLIPLLTKQLVDGFSMSNLSGTQIGLIALVFFVQAGLSAYATYALNYNGQKIISGLRELLWKKLIKLPVSYFDTNASGETVSRVTNDTMVVKELITTHISGFITGIISVIGSLTILFIMNWKLTLLVLVVVPLAALILVPIGRKMFSISRETQDETARFTGLLNQILPEIRLVKASNAEDVEYGRGKMGISSLFKLGVREAKVQSLVGPLISLVLMAALVAVIGYGGMQVSSGELTAGALVAFILYLFQIIMPMGQITTFFTQLQKSIGATERMIEILAEEEEDTVTGKQIENAHLPIQLDRVSFGYKPDQLILKEVSAVIEAGKVTAIVGPSGGGKTTLFKLLERFYSPTAGTIRLGDEPVDTYSLESWREHIGYVSQESPLMSGTIRENICYGLERDVTDAEIEKAAEMAYALNFIKELPNQFDTEVGERGIMLSGGQRQRIAIARALLRNPSILMLDEATSSLDSQSEKSVQQALEVLMEGRTTIVIAHRLSTVVDADQLLFVEKGEITGRGTHHELMASHGLYRDAAEQQLKMNADLENKAG
notes: BmrA of Bacillus subtilis strain 168, full length, F573 replaced by Ala; source: E. coli, purified in presence of detergent (DDM)
B3: BmrA L569A (natural protein, Bacillus subtilis strain 168, UniProt O06967 1-589, looked up)
chain: MPTKKQKSKSKLKPFFALVRRTNPSYGKLAFALALSVVTTLVSLLIPLLTKQLVDGFSMSNLSGTQIGLIALVFFVQAGLSAYATYALNYNGQKIISGLRELLWKKLIKLPVSYFDTNASGETVSRVTNDTMVVKELITTHISGFITGIISVIGSLTILFIMNWKLTLLVLVVVPLAALILVPIGRKMFSISRETQDETARFTGLLNQILPEIRLVKASNAEDVEYGRGKMGISSLFKLGVREAKVQSLVGPLISLVLMAALVAVIGYGGMQVSSGELTAGALVAFILYLFQIIMPMGQITTFFTQLQKSIGATERMIEILAEEEEDTVTGKQIENAHLPIQLDRVSFGYKPDQLILKEVSAVIEAGKVTAIVGPSGGGKTTLFKLLERFYSPTAGTIRLGDEPVDTYSLESWREHIGYVSQESPLMSGTIRENICYGLERDVTDAEIEKAAEMAYALNFIKELPNQFDTEVGERGIMLSGGQRQRIAIARALLRNPSILMLDEATSSLDSQSEKSVQQALEVLMEGRTTIVIAHRLSTVVDADQLLFVEKGEITGRGTHHELMASHGAYRDFAEQQLKMNADLENKAG
notes: BmrA of Bacillus subtilis strain 168, full length, L569 replaced by Ala; source: E. coli, purified in presence of detergent (DDM)
B4: BmrA E575A (natural protein, Bacillus subtilis strain 168, UniProt O06967 1-589, looked up)
chain: MPTKKQKSKSKLKPFFALVRRTNPSYGKLAFALALSVVTTLVSLLIPLLTKQLVDGFSMSNLSGTQIGLIALVFFVQAGLSAYATYALNYNGQKIISGLRELLWKKLIKLPVSYFDTNASGETVSRVTNDTMVVKELITTHISGFITGIISVIGSLTILFIMNWKLTLLVLVVVPLAALILVPIGRKMFSISRETQDETARFTGLLNQILPEIRLVKASNAEDVEYGRGKMGISSLFKLGVREAKVQSLVGPLISLVLMAALVAVIGYGGMQVSSGELTAGALVAFILYLFQIIMPMGQITTFFTQLQKSIGATERMIEILAEEEEDTVTGKQIENAHLPIQLDRVSFGYKPDQLILKEVSAVIEAGKVTAIVGPSGGGKTTLFKLLERFYSPTAGTIRLGDEPVDTYSLESWREHIGYVSQESPLMSGTIRENICYGLERDVTDAEIEKAAEMAYALNFIKELPNQFDTEVGERGIMLSGGQRQRIAIARALLRNPSILMLDEATSSLDSQSEKSVQQALEVLMEGRTTIVIAHRLSTVVDADQLLFVEKGEITGRGTHHELMASHGLYRDFAAQQLKMNADLENKAG
notes: BmrA of Bacillus subtilis strain 168, full length, E575 replaced by Ala; source: E. coli, purified in presence of detergent (DDM)
B5: BmrA Q577A (natural protein, Bacillus subtilis strain 168, UniProt O06967 1-589, looked up)
chain: MPTKKQKSKSKLKPFFALVRRTNPSYGKLAFALALSVVTTLVSLLIPLLTKQLVDGFSMSNLSGTQIGLIALVFFVQAGLSAYATYALNYNGQKIISGLRELLWKKLIKLPVSYFDTNASGETVSRVTNDTMVVKELITTHISGFITGIISVIGSLTILFIMNWKLTLLVLVVVPLAALILVPIGRKMFSISRETQDETARFTGLLNQILPEIRLVKASNAEDVEYGRGKMGISSLFKLGVREAKVQSLVGPLISLVLMAALVAVIGYGGMQVSSGELTAGALVAFILYLFQIIMPMGQITTFFTQLQKSIGATERMIEILAEEEEDTVTGKQIENAHLPIQLDRVSFGYKPDQLILKEVSAVIEAGKVTAIVGPSGGGKTTLFKLLERFYSPTAGTIRLGDEPVDTYSLESWREHIGYVSQESPLMSGTIRENICYGLERDVTDAEIEKAAEMAYALNFIKELPNQFDTEVGERGIMLSGGQRQRIAIARALLRNPSILMLDEATSSLDSQSEKSVQQALEVLMEGRTTIVIAHRLSTVVDADQLLFVEKGEITGRGTHHELMASHGLYRDFAEQALKMNADLENKAG
notes: BmrA of Bacillus subtilis strain 168, full length, Q577 replaced by Ala; source: E. coli, purified in presence of detergent (DDM)
B6: BmrA R571A (natural protein, Bacillus subtilis strain 168, UniProt O06967 1-589, looked up)
chain: MPTKKQKSKSKLKPFFALVRRTNPSYGKLAFALALSVVTTLVSLLIPLLTKQLVDGFSMSNLSGTQIGLIALVFFVQAGLSAYATYALNYNGQKIISGLRELLWKKLIKLPVSYFDTNASGETVSRVTNDTMVVKELITTHISGFITGIISVIGSLTILFIMNWKLTLLVLVVVPLAALILVPIGRKMFSISRETQDETARFTGLLNQILPEIRLVKASNAEDVEYGRGKMGISSLFKLGVREAKVQSLVGPLISLVLMAALVAVIGYGGMQVSSGELTAGALVAFILYLFQIIMPMGQITTFFTQLQKSIGATERMIEILAEEEEDTVTGKQIENAHLPIQLDRVSFGYKPDQLILKEVSAVIEAGKVTAIVGPSGGGKTTLFKLLERFYSPTAGTIRLGDEPVDTYSLESWREHIGYVSQESPLMSGTIRENICYGLERDVTDAEIEKAAEMAYALNFIKELPNQFDTEVGERGIMLSGGQRQRIAIARALLRNPSILMLDEATSSLDSQSEKSVQQALEVLMEGRTTIVIAHRLSTVVDADQLLFVEKGEITGRGTHHELMASHGLYADFAEQQLKMNADLENKAG
notes: BmrA of Bacillus subtilis strain 168, full length, R571 replaced by Ala; source: E. coli, purified in presence of detergent (DDM)
B7: BmrA A574V (natural protein, Bacillus subtilis strain 168, UniProt O06967 1-589, looked up)
chain: MPTKKQKSKSKLKPFFALVRRTNPSYGKLAFALALSVVTTLVSLLIPLLTKQLVDGFSMSNLSGTQIGLIALVFFVQAGLSAYATYALNYNGQKIISGLRELLWKKLIKLPVSYFDTNASGETVSRVTNDTMVVKELITTHISGFITGIISVIGSLTILFIMNWKLTLLVLVVVPLAALILVPIGRKMFSISRETQDETARFTGLLNQILPEIRLVKASNAEDVEYGRGKMGISSLFKLGVREAKVQSLVGPLISLVLMAALVAVIGYGGMQVSSGELTAGALVAFILYLFQIIMPMGQITTFFTQLQKSIGATERMIEILAEEEEDTVTGKQIENAHLPIQLDRVSFGYKPDQLILKEVSAVIEAGKVTAIVGPSGGGKTTLFKLLERFYSPTAGTIRLGDEPVDTYSLESWREHIGYVSQESPLMSGTIRENICYGLERDVTDAEIEKAAEMAYALNFIKELPNQFDTEVGERGIMLSGGQRQRIAIARALLRNPSILMLDEATSSLDSQSEKSVQQALEVLMEGRTTIVIAHRLSTVVDADQLLFVEKGEITGRGTHHELMASHGLYRDFVEQQLKMNADLENKAG
notes: BmrA of Bacillus subtilis strain 168, full length, A574 replaced by Val; source: E. coli, purified in presence of detergent (DDM)
B8: BmrA Q576A (natural protein, Bacillus subtilis strain 168, UniProt O06967 1-589, looked up)
chain: MPTKKQKSKSKLKPFFALVRRTNPSYGKLAFALALSVVTTLVSLLIPLLTKQLVDGFSMSNLSGTQIGLIALVFFVQAGLSAYATYALNYNGQKIISGLRELLWKKLIKLPVSYFDTNASGETVSRVTNDTMVVKELITTHISGFITGIISVIGSLTILFIMNWKLTLLVLVVVPLAALILVPIGRKMFSISRETQDETARFTGLLNQILPEIRLVKASNAEDVEYGRGKMGISSLFKLGVREAKVQSLVGPLISLVLMAALVAVIGYGGMQVSSGELTAGALVAFILYLFQIIMPMGQITTFFTQLQKSIGATERMIEILAEEEEDTVTGKQIENAHLPIQLDRVSFGYKPDQLILKEVSAVIEAGKVTAIVGPSGGGKTTLFKLLERFYSPTAGTIRLGDEPVDTYSLESWREHIGYVSQESPLMSGTIRENICYGLERDVTDAEIEKAAEMAYALNFIKELPNQFDTEVGERGIMLSGGQRQRIAIARALLRNPSILMLDEATSSLDSQSEKSVQQALEVLMEGRTTIVIAHRLSTVVDADQLLFVEKGEITGRGTHHELMASHGLYRDFAEAQLKMNADLENKAG
notes: BmrA of Bacillus subtilis strain 168, full length, Q576 replaced by Ala; source: E. coli, purified in presence of detergent (DDM)
B9: BmrA L578A (natural protein, Bacillus subtilis strain 168, UniProt O06967 1-589, looked up)
chain: MPTKKQKSKSKLKPFFALVRRTNPSYGKLAFALALSVVTTLVSLLIPLLTKQLVDGFSMSNLSGTQIGLIALVFFVQAGLSAYATYALNYNGQKIISGLRELLWKKLIKLPVSYFDTNASGETVSRVTNDTMVVKELITTHISGFITGIISVIGSLTILFIMNWKLTLLVLVVVPLAALILVPIGRKMFSISRETQDETARFTGLLNQILPEIRLVKASNAEDVEYGRGKMGISSLFKLGVREAKVQSLVGPLISLVLMAALVAVIGYGGMQVSSGELTAGALVAFILYLFQIIMPMGQITTFFTQLQKSIGATERMIEILAEEEEDTVTGKQIENAHLPIQLDRVSFGYKPDQLILKEVSAVIEAGKVTAIVGPSGGGKTTLFKLLERFYSPTAGTIRLGDEPVDTYSLESWREHIGYVSQESPLMSGTIRENICYGLERDVTDAEIEKAAEMAYALNFIKELPNQFDTEVGERGIMLSGGQRQRIAIARALLRNPSILMLDEATSSLDSQSEKSVQQALEVLMEGRTTIVIAHRLSTVVDADQLLFVEKGEITGRGTHHELMASHGLYRDFAEQQAKMNADLENKAG
notes: BmrA of Bacillus subtilis strain 168, full length, L578 replaced by Ala; source: E. coli, purified in presence of detergent (DDM)

Molecular target: the molecule itself
Assay: native gel or EMSA; blue native PAGE of purified BmrA wt and Ala (Val) variants in DDM micelles; 4 to 16% Bis-Tris gel; dimer to monomers

Row | Protein | binding result
1 | B1 | binds
2 | B2 | binds
3 | B3 | binds
4 | B4 | binds
5 | B5 | binds
6 | B6 | binds
7 | B7 | binds
8 | B8 | binds
9 | B9 | binds

From article PMC11774805, “The C-terminal α-helix is crucial for the activity of the bacterial ABC transporter BmrA” (The Journal of Biological Chemistry, 2024)
